First the molecules themselves.
B2: Trypanosoma brucei histone H2B (natural protein, Trypanosoma brucei brucei)
chain: ATPKSTPAKTRKEAKKTRRQRKRTWNVYVSRSLRSINSQMSMTSRTMKIVNSFVNDLFERIAAEAATIVRVNRKRTLGARELQTAVRLVLPADLAKHAMAEGTKAVSHASS
notes: also called Tb H2B

For assay [1], the target named is B2. The assay can be described thus: cryo-EM structure. The note with it: both partners purified.
The target in assay [2] is T1, Trypanosoma brucei histone H2A (Trypanosoma brucei brucei, UniProt Q57YA3 2-134).
T1 construct: also called Tb H2A
T1 sequence: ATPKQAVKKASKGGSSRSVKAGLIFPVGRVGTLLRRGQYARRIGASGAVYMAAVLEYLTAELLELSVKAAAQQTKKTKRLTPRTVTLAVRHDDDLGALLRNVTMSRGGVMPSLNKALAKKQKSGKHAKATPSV
The assay can be described thus: cryo-EM structure. The conditions noted are these: both partners purified.

B1: Trypanosoma brucei histone H4 (natural protein)
chain: not shown
notes: also called Tb H4
As for B1, in assay [1], the binding result is reported as “binds”. Turning to B2, the binding result in assay [2] was “binds”.

Source of the values: article PMC10450195, “Histone divergence in trypanosomes results in unique alterations to nucleosome structure” (Nucleic Acids Research, 2023).
